Results published in US20240092922A1 (EUCURE BEIJING BIOPHARMA, published 2024).

How the values were obtained:
[1] = molecular target: T1, mouse 4-1BB (m4-1BB) on transfected CHO cells (mouse, UniProt P20334 24-256); assay: flow cytometry on CHO-m4-1BB cells, anti-mouse-IgG-Fc-FITC (1:100)
T1 construct: also called CHO-m4-1BB
Description: 25 μl CHO cells were added to each well. 25 μl purified anti-h4-1BB antibodies (1 μg/ml) were added to each well and were incubated at 4° C. for 30 minutes.
After being washed with PBS (1200 rmp, 5 min) twice, 50 μl of FITC labeled anti-mouse IgG Fc antibody (anti-mIgG Fc-FITC) was added into each well at 1:100 dilution, followed by incubating at 4° C. for 30 minutes, and then PBS wash (1200 rmp, 5 min). In some cases, PE labeled anti-mouse IgG Fc antibody (anti-mIgG Fc-PE) was used to label the antibody instead, and was added into each tested well at 1:500 dilution. The signals for FITC and PE were determined by flow cytometry.

[2] = molecular target: T2, human 4-1BB (h4-1BB) on transiently transfected CHO cells (human, UniProt Q07011 24-255); assay: flow cytometry, CHO cells transfected with human 4-1BB, antibody at 1 µg/ml
T2 construct: also called TNFRSF9; CD137
Description: (§1) 25 μl CHO cells transiently transfected with human 4-1BB were added to each well in a plate. The purified antibodies were titrated to final concentrations of 10, 1, 0.1, 0.01, 0.001 μg/ml. The titrated antibodies were added to each well at 4° C. and incubated for 30 minutes.
(§2) After being washed with phosphate-buffered saline (PBS) (1200 rpm, 5 minutes) twice, 50 μl of FITC labeled anti-mouse IgG Fc antibody (anti-mIgG Fc-FITC) at 1:100 dilution was added into each well, and incubated for 30 minutes at 4° C., followed by PBS wash (1200 rpm, 5 minutes). The signal for FITC was detected by flow cytometry.

[3] = molecular target: T2, human 4-1BB (h4-1BB) on transiently …; assay: flow cytometry, CHO cells transfected with human 4-1BB, antibody at 10 µg/ml
Description: as §1, §2

[4] = molecular target: T2, human 4-1BB (h4-1BB) on transiently …; assay: flow cytometry, CHO cells transfected with human 4-1BB, antibody at 0.1 µg/ml
Description: as §1, §2

[5] = molecular target: T2, human 4-1BB (h4-1BB) on transiently …; assay: flow cytometry, CHO cells transfected with human 4-1BB, antibody at 0.01 µg/ml
Description: as §1, §2

[6] = molecular target: T2, human 4-1BB (h4-1BB) on transiently …; assay: flow cytometry, CHO cells transfected with human 4-1BB, antibody at 0.001 µg/ml
Description: as §1, §2

B1: 16-1C4 (antibody, V domains shown)
VH: QGQMQQSGAELVKPGASVKLSCKTSGFTFSSSYINWLKQKPGQSLEWIAWIFAGTGGTYYNQKFTGKAQLTVDTSSGTAYMQFSSLTTEDSAIYYCARHSPRATLFDFWGQGTTLTVSS
VL: QIVLSQSPAILSASPGEKVTMTCRASSSVNHMHWYQQRTGFSPKAWIYATSNLASGVPARFSGSGSGTSYSLTISRVEAEDAATYYCQQWSSNPYTFGGGTKLEIK
notes: mouse antibody purified from ascites
- binding result [1]: no binding (tested: 1 µg/ml)
- percentage of cells with FITC signal [2]: 69%
- percentage of cells with FITC signal [3]: 69.1%
- percentage of cells with FITC signal [4]: 49.7%
- percentage of cells with FITC signal [5]: 6.61%
- percentage of cells with FITC signal [6]: 0.316%
